Measurements taken from US11471494B2, “Microorganisms programmed to produce immune modulators and anti-cancer therapeutics in tumor cells” (Synlogic Operating Company, Inc., priority 2017, dated 2022).
Values belong to the molecule of their own block, whether it stands above or below them.

Tests used:
[1] = target: T1, murine CD47 on CT26 cells (Mus musculus, UniProt Q61735); test: Competition assay on CT26 cells (flow cytometry); format: cell-based; conditions: secreted FD6x2sirpα or FD6sirpαhIgG4
T1 construct: CT26 is a mouse colon carcinoma cell line which expresses CD47 on its cell surface; endogenous in cells; host or cells: CT26 mouse colon carcinoma cells
T1 sequence (Q61735 19-303): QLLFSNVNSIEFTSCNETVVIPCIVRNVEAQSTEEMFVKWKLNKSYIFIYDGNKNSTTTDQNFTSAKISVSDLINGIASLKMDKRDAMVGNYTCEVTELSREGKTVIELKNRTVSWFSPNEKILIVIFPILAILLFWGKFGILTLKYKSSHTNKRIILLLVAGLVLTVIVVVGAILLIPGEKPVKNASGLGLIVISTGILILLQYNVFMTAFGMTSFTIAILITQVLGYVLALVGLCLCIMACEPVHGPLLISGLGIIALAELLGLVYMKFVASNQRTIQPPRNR
Procedure: Next, a competition assay was conducted to determine whether the murine SIRPα secreted by the genetically engineered bacteria could compete with the binding of a recombinant mSIRPα or an anti-CD47 antibody to murine CD47 on CT26 cells. CT26 cells were grown and flow cytometry protocol was conducted essentially as described above except that recombinant SIRPα (Rndsystems) or an anti-CD47 antibody (Biolegend) was added during the incubation of the secreted FD6×2sirpα or FD6sirpαhIgG4. FIG. 29 and FIG. 30 show the results of the competition with recombinant SIRPalpha and anti-CD47 antibody, respectively.

mCD47 = target: T2, mCD47 (Mus musculus, UniProt Q61735); test: SIRPα/CD47 ELISA binding assay of supernatants; conditions: supernatant
T2 sequence (Q61735 19-303): T1 sequence (Q61735 19-303)

anti-mSIRPα antibody = test: SIRPα/CD47 ELISA binding assay, detection by antibody; conditions: supernatant
[2] = SIRPα/CD47 ELISA binding assay, control coatings; conditions: supernatant
anti-mCD40L antibody = test: CD40 ELISA binding assay of supernatants, detection by antibody; conditions: clarified supernatant
[3] = CD40 ELISA binding assay, control coatings; conditions: clarified supernatant
mCD40 = target: T3, mCD40 (Mus musculus, UniProt P27512); test: CD40 ELISA binding assay of supernatants; conditions: clarified supernatant
T3 sequence (P27512 20-289): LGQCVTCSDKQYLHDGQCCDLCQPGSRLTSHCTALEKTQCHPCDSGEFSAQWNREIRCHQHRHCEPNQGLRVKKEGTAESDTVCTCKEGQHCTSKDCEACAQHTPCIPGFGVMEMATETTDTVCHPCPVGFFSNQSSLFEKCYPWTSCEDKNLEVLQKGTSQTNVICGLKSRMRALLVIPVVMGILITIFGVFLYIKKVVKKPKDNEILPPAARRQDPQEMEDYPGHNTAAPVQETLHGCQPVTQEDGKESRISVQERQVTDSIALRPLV

CD47 on mouse CT26 cells = target: T4, CD47 on mouse CT26 cells (Mus musculus, UniProt Q61735); test: flow cytometric analysis of CD47 expressing CT26 cells incubated with strain supernatants; format: binding
T4 construct: CT26 is a mouse colon carcinoma cell line which expresses CD47 on its cell surface; endogenous in cells; host or cells: CT26 mouse colon carcinoma cells
T4 sequence (Q61735 19-303): T1 sequence (Q61735 19-303)
Description: FIG. 29 depicts a diagram of a flow cytometric analysis of CT26 cells.
FIG. 30 depicts a diagram of a flow cytometric analysis of CT26 cells.

PD1 on mouse EL4 cells = target: T5, PD1 on mouse EL4 cells (Mus musculus, UniProt Q02242); test: Flow cytometry, binding of anti-PD1-scFv to EL4 cells; format: cell-based
T5 construct: EL4 are a mouse lymphoma cell line which expresses PD1 on its cell surface; endogenous in cells; host or cells: EL4 mouse lymphoma cells
T5 sequence (Q02242 25-288): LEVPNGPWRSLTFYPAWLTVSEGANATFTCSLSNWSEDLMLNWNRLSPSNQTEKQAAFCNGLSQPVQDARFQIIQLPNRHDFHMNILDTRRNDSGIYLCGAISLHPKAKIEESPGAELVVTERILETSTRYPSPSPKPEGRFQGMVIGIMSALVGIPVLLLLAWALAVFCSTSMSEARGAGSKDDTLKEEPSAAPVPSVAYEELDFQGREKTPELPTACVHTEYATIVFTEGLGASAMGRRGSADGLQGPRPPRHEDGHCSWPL
Procedure: To determine whether anti-PD1-scFv expressed in E. coli binds to surface PD1 on mouse EL4 cells, flow cytometric analysis was performed using EL4 cells. EL4 are a mouse lymphoma cell line which expresses PD1 on its cell surface.
EL4 cells were grown in Dulbecco's Modified Eagle's Medium (DMEM) with 10% FBS. Cells were spun down, supernatant was aspirated, pellet was resuspended in 1 ml D-PBS, transferred into chilled assay tubes (1×10^6 cells), and washed 2-3 times in D-PBS with 0.5% BSA. Cells were resuspended in PBS with 0.5% BSA, to which the purified scFv-V5 and anti-V5-FITC antibody were added and incubated for 1 hour at room temperature. Negative control left out scFv-V5. Cells were resuspended in 0.5 ml PBS and analyzed on a flow cytometer.
EL4 are a mouse lymphoma cell line which expresses PD1 on its cell surface.
EL4 cells were grown in Dulbecco's Modified Eagle's Medium (DMEM) with 10% FBS and 1% Penicillin-Streptomycin Cells were spun down, supernatant was aspirated, pellet was resuspended in 1 ml D-PBS, transferred into chilled assay tubes (1×10^6 cells), and washed 3 times in D-PBS. Cells were resuspended in D-PBS with 0.5% BSA, to which the purified scFv-V5 and anti-V5-FITC antibody were added and incubated for 1 hour at room temperature. Negative control left out secreted J43-scFv-V5. Cells were then resuspended in 0.5 ml PBS and analyzed on a flow cytometer. Results are shown in (FIG. 20).

[4] = target: T6, mPD1 on the surface of EL4 cells (Mus musculus, UniProt Q02242); test: PDL1 competition assay on EL4 cells (flow cytometry); format: cell-based; conditions: PDL1 0, 5, 10 and 30 μg/mL
T6 construct: EL4 are a mouse lymphoma cell line which expresses PD1 on its cell surface; endogenous in cells; host or cells: EL4 mouse lymphoma cells
T6 sequence (Q02242 25-288): T5 sequence (Q02242 25-288)
Procedure: Next, a competition assay was conducted to determine whether PDL1 could inhibit the binding of the anti-PD1-scFv secreted by the genetically engineered bacteria from binding to murine PD1. EL4 cells were grown and flow cytometry protocol was conducted essentially as described above except that PDL1 was added at various concentrations (0, 5, 10, and 30 μg/mL) during the incubation of the secreted anti-PD1-scFv-V5. Rat-IgG was used as a negative control of secreted scFv.

[5] = ELISA binding assay of bacterial extracts (J43-scFv), control coatings; conditions: α-V5-HRP
Procedure: (§1) E. coli comprising either tet-inducible J43-Anti-PD1-scFv-V5 or wild type controls were grown overnight in LB medium. […] Same amount of tetracycline was added to wild type control cultures.
(§2) To determine whether the single-chain antibody purified from E. coli DH5α functionally binds to the target protein, PD1, an ELISA assay was performed.

mPD1 = target: T7, mPD1 (Mus musculus, UniProt Q02242); test: ELISA binding assay of bacterial extracts (J43-scFv); conditions: α-V5-HRP
T7 construct: purchased Rndsystems
T7 sequence (Q02242 25-288): T5 sequence (Q02242 25-288)
Procedure: as §1, §2

Competition with secreted SIRPalpha for binding to CD47 on CT26 cells [1]: able to compete
B1: recombinant SIRPalpha: recombinant SIRPα (Rndsystems) (protein)
chain: KELKVTQPEKSVSVAAGDSTVLNCTLTSLLPVGPIRWYRGVGPSRLLIYSFAGEYVPRIRNVSDTTKRNNMDFSIRISNVTPADAGIYYCVKFQKGSSEPDTEIQSGGGTEVYVLAKPSPPEVSGPADRGIPDQKVNFTCKSHGFSPRNITLKWFKDGQELHPLETTVNPSGKNVSYNISSTVRVVLNSMDVNSKVICEVAHITLDRSPLRGIANLSNFIRVSPTVKVTQQSPTSMNQVNLTCRAERFYPEDLQLIWLENGNVSRNDTPKNLTKNTDGTYNYTSLFLVNSSAHREDVVFTCQVKHDQQPAITRNHTVLGFAHSSDQGSMQTFPDNNATHNWN

ELISA signal, coating mCD47 (mCD47): 1.069
ELISA signal, coating Anti-mSIRPα (anti-mSIRPα antibody): 0.829
ELISA signal, coating IgG [2]: 0.056
ELISA signal, coating PBS [2]: 0.059
B2: Secreted WT mSIRPα: wild type murine SIRPα secreted by engineered Nissle (SYN2996), in supernatant (protein)
chain: B1 chain
modifications: left off: small tags and cut ends

ELISA signal, coating mCD47 (mCD47): 0.527
ELISA signal, coating IgG [2]: 0.067
ELISA signal, coating PBS [2]: 0.053
B3: Secreted anti-mCD47 scFv: anti-mCD47 scFv secreted by engineered Nissle (SYN3161), in supernatant (protein)
scFv: QVKLLQSGAALVKPGASVKMSCQASGYSFTDYWVTWVKQSHGQSLEWIGEIYPSNTVTNFNDNFKGKATLTVDKSTSTAYMELSRLTSEDSAIYYCTRIGNSGYRVGWFIYWGQGTLVTVLSGGGGSGGGGSGGGGSDTVLTQSPALAVSPGERVTISCKASESVSSHMHWYQQKPGQQPKLLIYKASNLASGVPARFSGSGSGTDFTLTIDPVEADDTATYFCQQGWNGPFTFGAGTRLELKRADAAGSGELGGSGKPIPNPLLGLDSTGSGHHHHHH

ELISA signal, coating Anti-mCD40L (anti-mCD40L antibody): 0.394
ELISA signal, coating IgG [3]: 0.052
ELISA signal, coating PBS [3]: 0.049
ELISA signal, coating mCD40 (mCD40): 0.231
B4: Secreted CD40-L1: extracellular portion of murine CD40L secreted by SYN3366, in clarified supernatant (protein)
chain: HRRLDKVEEEVNLHEDFVFIKKLKRCNKGEGSLSLLNCEEMRRQFEDLVKDITLNKEEKKENSFEMQRGDEDPQIAAHVVSEANSNAASVLQWAKKGYYTMKSNLVMLENGKQLTVKREGLYYVYTQVTFCSNREPSSQRPFIVGLWLKPSSGSERILLKAANTHSSSQLCEQQSVHLGGVFELQAGASVFVNVTEASQVIHRVGFSSFGLLKL
modifications: left off: small tags and cut ends
notes: extracellular portion of murine CD40L secreted by SYN3366, in clarified supernatant

B5: murine SIRPalpha: tet-inducible murine SIRPalpha secreted from an E. coli Nissle strain (protein, UniProt P97797 32-513, looked up)
Tyrosine-protein phosphatase …: KELKVTQPEKSVSVAAGDSTVLNCTLTSLLPVGPIRWYRGVGPSRLLIYSFAGEYVPRIRNVSDTTKRNNMDFSIRISNVTPADAGIYYCVKFQKGSSEPDTEIQSGGGTEVYVLAKPSPPEVSGPADRGIPDQKVNFTCKSHGFSPRNITLKWFKDGQELHPLETTVNPSGKNVSYNISSTVRVVLNSMDVNSKVICEVAHITLDRSPLRGIANLSNFIRVSPTVKVTQQSPTSMNQVNLTCRAERFYPEDLQLIWLENGNVSRNDTPKNLTKNTDGTYNYTSLFLVNSSAHREDVVFTCQVKHDQQPAITRNHTVLGFAHSSDQGSMQTFPDNNATHNWNVFIGVGVACALLVVLLMAALYLLRIKQKKAKGSTSSTRLHEPEKNAREITQVQSLIQDTNDINDITYADLNLPKEKKPAPRAPEPNNHTEYASIETGKVPRPEDTLTYADLDMVHLSRAQPAPKPEPSFSEYASVQVQRK
competition of binding to CD47 on CT26 cells by recombinant SIRPalpha (CD47 on mouse CT26 cells; FIG. 29): recombinant SIRPalpha can compete with the binding
competition of binding to CD47 on CT26 cells by anti-CD47 antibody (CD47 on mouse CT26 cells; FIG. 30): the antibody can compete with the binding

Binding to EL4 cells (PD1 on mouse EL4 cells; purified scFv with anti-V5-FITC, two batches): population shift
Staining of EL4 cells (PD1 on mouse EL4 cells; secreted scFv 0, 2, 5 and 15 μL): dose-dependent staining
Binding to EL4 cells (PD1 on mouse EL4 cells; secreted scFv with anti-V5-FITC): population shift
Competition of PDL1 against binding of secreted scFv [4]: competed in a dose dependent manner
ELISA signal at 450 nm, IgG coating ([5]; bacterial extract (1/2)): 0.11
ELISA signal at 450 nm, PBS coating ([5]; bacterial extract (1/2)): 0.10
ELISA signal at 450 nm, IgG coating ([5]; bacterial extract): 0.13
ELISA signal at 450 nm, PBS coating ([5]; bacterial extract): 0.11
ELISA signal at 450 nm, mPD1 coating (mPD1; bacterial extract (1/2)): 0.90
ELISA signal at 450 nm, mPD1 coating (mPD1; bacterial extract): 1.41
B6: J43-scFv-V5: single-chain variable fragment based on J43 monoclonal antibody against mouse PD-1, V5 and HIS tagged, expressed in E. coli (protein)
scFv: MQLEVRLLESGGGLVKPEGSLKLSCVASGFTFSDYFMSWVRQAPGKGLEWVAHIYTKSYNYATYYSGSVKGRFTISRDDSRSMVYLQMNNLRTEDTATYYCTRDGSGYPSLDFWGQGTQVTVSSGGGGSGGGGSGGGGSYELTQPPSASVNVGETVKITCSGDQLPKYFADWFHQRSDQTILQVIYDDNKRPSGIPERISGSSSGTTATLTIRDVRAEDEGDYYCFSGYVDSDSKLYVFGSGTQLTVLGKGELNSKLEGKPIPNPLLGLDSTRTGHHHHHH

ELISA signal, coating Anti-mCD40L (anti-mCD40L antibody): 0.825
ELISA signal, coating IgG [3]: 0.052
ELISA signal, coating PBS [3]: 0.05
ELISA signal, coating mCD40 (mCD40): 0.639
B7: Secreted CD40-L2: soluble form of murine CD40L secreted by SYN3367, in clarified supernatant (protein)
chain: MQRGDEDPQIAAHVVSEANSNAASVLQWAKKGYYTMKSNLVMLENGKQLTVKREGLYYVYTQVTFCSNREPSSQRPFIVGLWLKPSSGSERILLKAANTHSSSQLCEQQSVHLGGVFELQAGASVFVNVTEASQVIHRVGFSSFGLLKL
modifications: left off: small tags and cut ends
